Experimental data as given in article PMC3160285, “Fukutin-Related Protein Resides in the Golgi Cisternae of Skeletal Muscle Fibres and Forms Disulfide-Linked Homodimers via an N-Terminal Interaction” (PLoS ONE, 2011).
Positions count from the first letter of the chain named. Names and notes keep the numbering of the source.

B1: FKRP-282 (C-terminal truncation mutant of FKRP) (domain or fragment, human, UniProt Q9H9S5 1-282, looked up)
chain: MRLTRCQAALAAAITLNLLVLFYVSWLQHQPRNSRARGPRRASAAGPRVTVLVREFEAFDNAVPELVDSFLQQDPAQPVVVAADTLPYPPLALPRIPNVRLALLQPALDRPAAASRPETYVATEFVALVPDGARAEAPGLLERMVEALRAGSARLVAAPVATANPARCLALNVSLREWTARYGAAPAAPRCDALDGDAVVLLRARDLFNLSAPLARPVGTSLFLQTALRGWAVQLLDLTFAAARQPPLATAHARWKAEREGRARRAALLRALGIRLVSWEGG
notes: fukutin-related protein (FKRP), human; C-terminal truncation, last amino acid 282; source: COS-7, transfected, in lysate (5 mM NEM)
B2: FKRP-157 (C-terminal truncation mutant of FKRP) (domain or fragment, human, UniProt Q9H9S5 1-157, looked up)
chain: MRLTRCQAALAAAITLNLLVLFYVSWLQHQPRNSRARGPRRASAAGPRVTVLVREFEAFDNAVPELVDSFLQQDPAQPVVVAADTLPYPPLALPRIPNVRLALLQPALDRPAAASRPETYVATEFVALVPDGARAEAPGLLERMVEALRAGSARLVA
notes: fukutin-related protein (FKRP), human; source: COS-7, transfected, in lysate (5 mM NEM)
B3: FKRP-373 (C-terminal truncation mutant of FKRP) (domain or fragment, human, UniProt Q9H9S5 1-373, looked up)
chain: MRLTRCQAALAAAITLNLLVLFYVSWLQHQPRNSRARGPRRASAAGPRVTVLVREFEAFDNAVPELVDSFLQQDPAQPVVVAADTLPYPPLALPRIPNVRLALLQPALDRPAAASRPETYVATEFVALVPDGARAEAPGLLERMVEALRAGSARLVAAPVATANPARCLALNVSLREWTARYGAAPAAPRCDALDGDAVVLLRARDLFNLSAPLARPVGTSLFLQTALRGWAVQLLDLTFAAARQPPLATAHARWKAEREGRARRAALLRALGIRLVSWEGGRLEWFGCNKETTRCFGTVVGDTPAYLYEERWTPPCCLRALRETARYVVGVLEAAGVRYWLEGGSLLGAARHGDIIPWDYDVDLGIYLEDVG
notes: fukutin-related protein (FKRP), human; C-terminal truncation, last amino acid 373; source: COS-7, transfected, in lysate (5 mM NEM)
B4: FKRP Cys168Ser (natural protein, human, UniProt Q9H9S5 1-495, looked up)
chain: MRLTRCQAALAAAITLNLLVLFYVSWLQHQPRNSRARGPRRASAAGPRVTVLVREFEAFDNAVPELVDSFLQQDPAQPVVVAADTLPYPPLALPRIPNVRLALLQPALDRPAAASRPETYVATEFVALVPDGARAEAPGLLERMVEALRAGSARLVAAPVATANPARSLALNVSLREWTARYGAAPAAPRCDALDGDAVVLLRARDLFNLSAPLARPVGTSLFLQTALRGWAVQLLDLTFAAARQPPLATAHARWKAEREGRARRAALLRALGIRLVSWEGGRLEWFGCNKETTRCFGTVVGDTPAYLYEERWTPPCCLRALRETARYVVGVLEAAGVRYWLEGGSLLGAARHGDIIPWDYDVDLGIYLEDVGNCEQLRGAEAGSVVDERGFVWEKAVEGDFFRVQYSESNHLHVDLWPFYPRNGVMTKDTWLDHRQDVEFPEHFLQPLVPLPFAGFVAQAPNNYRRFLELKFGPGVIENPQYPNPALLSLTGSG
notes: fukutin-related protein (FKRP), human, 495 aa, made from pcDNA3.1-FKRP by site-directed mutagenesis; also called FKRP-C168S; source: COS-7, transfected, in lysate (5 mM NEM)
B5: FKRP Cys296Ser (natural protein, human, UniProt Q9H9S5 1-495, looked up)
chain: B4 chain with S168C, C296S
notes: fukutin-related protein (FKRP), human, 495 aa, made from pcDNA3.1-FKRP by site-directed mutagenesis; also called FKRP-C296S; source: COS-7, transfected, in lysate (5 mM NEM)
B6: FKRP-Cys289Ser (natural protein, human, UniProt Q9H9S5 1-495, looked up)
chain: B4 chain with S168C, C289S
notes: fukutin-related protein (FKRP), human, 495 aa, made from pcDNA3.1-FKRP by site-directed mutagenesis; also called FKRP-C289S; source: COS-7, transfected, in lysate (5 mM NEM)
B7: Fukutin-related protein (FKRP), human, wild type, untagged (pcDNA3.1-FKRP) (natural protein, UniProt Q9H9S5 1-495, looked up)
chain: B4 chain with S168C
modifications: N-linked glycans of high mannose and/or hybrid type at Asn172 and Asn209
notes: fukutin-related protein (FKRP), human, 495 aa; Same construct expressed in two cell lines; the assay's format names the cell line; also called hFKRP; full length FKRP; source: COS-7 or BHK-21, transfected (pcDNA3.1-FKRP), in lysate
B8: FKRP Cys375Ser (natural protein, human, UniProt Q9H9S5 1-495, looked up)
chain: B4 chain with S168C, C375S
notes: fukutin-related protein (FKRP), human, 495 aa, made from pcDNA3.1-FKRP by site-directed mutagenesis; also called FKRP-C375S; source: COS-7, transfected, in lysate (5 mM NEM)
B9: FKRP Cys191Ser (natural protein, human, UniProt Q9H9S5 1-495, looked up)
chain: B4 chain with S168C, C191S
notes: fukutin-related protein (FKRP), human, 495 aa, made from pcDNA3.1-FKRP by site-directed mutagenesis; also called FKRP-C191S; source: COS-7, transfected, in lysate (5 mM NEM)
B10: FKRP-Asn209Gln (natural protein, human, UniProt Q9H9S5 1-495, looked up)
chain: B4 chain with S168C, N209Q
notes: fukutin-related protein (FKRP), human, 495 aa, made from pcDNA3.1-FKRP by site-directed mutagenesis; source: COS-7, transfected, in lysate (5 mM NEM)
B11: FKRP-Asn172Gln (natural protein, human, UniProt Q9H9S5 1-495, looked up)
chain: B4 chain with S168C, N172Q
notes: as for B10
B12: FKRP-Asn172Gln/Asn209Gln (natural protein, human, UniProt Q9H9S5 1-495, looked up)
chain: B4 chain with S168C, N172Q, N209Q
notes: fukutin-related protein (FKRP), human, 495 aa, made from pcDNA3.1-FKRP by site-directed mutagenesis; also called double mutant; source: COS-7, transfected, in lysate (5 mM NEM)

The molecules below were run against FKRP Cys317Ser/Cys318Ser (human) (UniProt Q9H9S5) (assay: SDS-PAGE (non-reducing and reducing) with Western blot; cleared COS-7 lysates prepared with 5 mM NEM; untreated or reduced with 330-400 mM DTT at RT for 30 min; 4-12% gel; detection with FKRP207 antibody).

Row | Molecule | stoichiometry N
1 | FKRP Cys317Ser/Cys318Ser (from UniProt Q9H9S5 1-495) (natural protein) | 2

Biological target: the molecule itself
Assay: as above

Row | Molecule | stoichiometry N
2 | B1 | 2
3 | B2 | 2
4 | B3 | 2
5 | B4 | 2
6 | B5 | 2
7 | B6 | 2
8 | B7 | 2
9 | B8 | 2
10 | B9 | 2
11 | B10 | 2
12 | B11 | 2
13 | B12 | 2
